PMC9573943, “Contribution of the 12–17 hydrophobic region of islet amyloid polypeptide in self-assembly and cytotoxicity” (Frontiers in Molecular Biosciences, 2022)
“Also recorded” adds a separate entry of the source. Bridge positions count the residues as written; N and C are the ends. Ends that are not written are not given here.

Legend:
[1] = Peptide self-assembly under fully quiescent conditions (CD, ThT and ANS fluorescence, TEM, AFM); format: physicochemical; settings: 50 μM peptide; for Assemblies observed by TEM after 48 h incubation / Overall effect of the substitution on amyloid formation, in words: 20 mM Tris-HCl pH 7.4, quiescent; for Assemblies observed by TEM after 48 h incubation: negative stain TEM; for Overall effect of the substitution on amyloid formation, in words: CD, ThT, ANS, TEM, compared with unmodified IAPP
Method: (§1) Solutions were prepared by dissolving the peptide at a concentration of 50 μM in 20 mM Tris-HCl, pH 7.4, and were incubated at room temperature without agitation in 1.5 ml Eppendorf microtubes. For IAPP12-17, the lyophilized peptide was dissolved in 20 mM acetate pH 6.5 in the presence of 3% DMSO, or HFIP, at a final concentration of 500 μM and the peptide solution was incubated at 37 °C under constant rotational agitation.
(§2) At the indicating time of incubation, peptide solutions were diluted to 25 μM in presence of 40 μM ThT, or 25 μM 8-anilino-1-naphthalenesulfonic acid (ANS). Fluorescence was measured in 10-mm pathlength microcells using a PTI QuantaMaster spectrofluorometer. For ThT, excitation was set at 440 nm, and the emission spectrum from 450 to 550 nm was recorded. For ANS, the excitation was set at 355 nm, and the emission scan was recorded from 385 to 585 nm.
(§3) After incubation, peptide solutions were diluted in water to 25 μM and incorporated into a 2-mm path length quartz cell. For IAPP12-17, the solution was diluted to 150 μM. Far-UV CD spectra were recorded from 190 to 260 nm using a Jasco J-815 CD spectropolarimeter at 25°C. The wavelength step was set at 0.5 nm with an average time of 10 s per scan at each wavelength. Spectra were background-subtracted with buffer solution. Raw data were converted to mean residue ellipticity (MRE): MRE=Mean residue weight (g/mol)X CD signal (deg)/10 X pathlength (cm) X peptide concentration (g/mL)
(§4) After incubation, peptide solutions were diluted to 10 μM, or 100 μΜ for IAPP12-17, before being applied on glow-discharged carbon films on 300-mesh copper grids. Samples were adsorbed and negatively stained with 1.5% uranyl formate for 45 s. Images were recorded using a FEI Tecnai G2 Spirit Twin microscope operating at 120 kV and equipped with a Gatan Ultrascan scan 4,000 4k × 4k CCD camera system.
After incubation, peptide solutions were diluted in 1% acetic acid to a concentration of 7.5 μΜ. […] Images were recorded using Veeco/Bruker multimode AFM instrument using ScanAsyst-air mode with a silicon tip (2–12 nm tip radius, 0.4 N/m force) on a nitride lever. Images were taken at 0.977 Hz and 512 scan/min.

INS-1E cells = test: Cell viability by resazurin reduction; format: cell-based, Rat; settings: freshly dissolved peptide up to 50 μM, 24 h, at least five assays
Method: Rat INS-1E cells were cultured in treated black-wall clear-bottom 96-well plates at a density of 25,000 cell/well in RPMI-1640 medium supplemented with 10% FBS, 2 mM L-glutamine, 100 U/ml penicillin, 100 μg/ml streptomycin, 10 mM HEPES, 1 mM sodium pyruvate and 50 μM β-mercaptoethanol. After 48 h of incubation at 37°C in 5% CO2, cells were treated with 50 μL of peptide freshly dissolved in 20 mM Tris-HCl, pH 7.4. […] Cell viability (%) was calculated from the ratio of the fluorescence of the treated cells to the vehicle-treated cells. Data of at least five assays performed with different peptide lots were averaged and expressed as the mean ± S.D. Statistical analysis was performed using Student’s t test, and statistically significant difference was established at (*) p < 0.05; (**) p < 0.005; (***) p < 0.0005. For Live/Dead viability assay, cells were plated in 12-well plates at density of 250,000 cell/well for 48 h before treatment with 25 μM peptide.

[2] = TFE titration by far-UV CD spectroscopy (helical folding); format: physicochemical; settings: ellipticity at 222 nm, Tris-HCl 20 mM, TFE titration (0 to 30% TFE)
Method: as §3

[3] = Solubility and self-assembly of the IAPP12-17 fragment (CD, ThT, ANS, TEM); format: physicochemical
Method: as §1, §2, §3, §4

[4] = cited from earlier work
Description: Countless studies have highlighted the key contributions of the 20–29 domain for IAPP self-assembly, often referred to as the amyloidogenic core ([Glenner et al., 1988]). The fact that the sequence from rodent IAPP (rIAPP) includes three β-breaker prolines within the 20-29 region, and is non-amyloidogenic and poorly toxic, further highlights the critical role of this segment ([Moriarty and Raleigh, 1999]; [Tomasello et al., 2014]).

N14G: full-length IAPP with Asn14 substituted by Gly (KCNTATCATQRLAGFLVHSSNNFGAILSSTNVGSNTY; disulfide 2-7; ends not checked; UniProt P10997 34-70, looked up, variant N14G)
Assemblies observed by TEM after 48 h incubation [1]: short, less defined, and twisted
Secondary conformation / conformational transition over incubation (far-UV CD), in words ([1]; 20 mM Tris-HCl pH 7.4, room temperature, fully quiescent, up to 7 days): delayed the random coil-to-β-sheet shift
Cytotoxicity compared with unmodified IAPP, in words (INS-1E cells): significantly reduced IAPP cytotoxicity; also recorded: poorly toxic for pancreatic cells, even at 50 μM
TFE-induced helical folding compared with unmodified IAPP, in words [2]: destabilizes the propensity of IAPP to adopt an α-helix

F15G: full-length IAPP with Gly at position Phe15 (KCNTATCATQRLANGLVHSSNNFGAILSSTNVGSNTY; disulfide 2-7; ends not checked; UniProt P10997 34-70, looked up, variant F15G)
Assemblies observed by TEM after 48 h incubation [1]: no aggregates could be detected
Overall effect of the substitution on amyloid formation, in words [1]: delayed IAPP amyloid formation
Assemblies observed by TEM after 168 h (7 days) incubation ([1]; 20 mM Tris-HCl pH 7.4, room temperature, no agitation, 168 h): some partially dispersed amyloid fibrils
Cytotoxicity compared with unmodified IAPP, in words (INS-1E cells): significantly reduced IAPP cytotoxicity
TFE-induced helical folding compared with unmodified IAPP, in words [2]: destabilizes the propensity of IAPP to adopt an α-helix

LANFLV [IAPP12-17, short C-amidated peptide encompassing the 12–17 segment (LANFLV) of IAPP]
ThT and ANS fluorescence of the aggregates ([3]; 500 μM peptide incubated at 37 °C, diluted to 25 μM with 40 μM ThT or 25 μM ANS): ThT and ANS negative
Assemblies observed by TEM after 7 days incubation ([3]; 500 μM peptide, 20 mM acetate pH 6.5, 3% HFIP or 3% DMSO, 37 °C, constant agitation, longer fibrils with HFIP): laterally aligned rod-like fibrils
Secondary structure over incubation time (far-UV CD) ([3]; 500 μM peptide, 20 mM acetate pH 6.5, 3% HFIP, 37 °C, constant rotary agitation): mainly a random coil secondary structure after its solubilization, which evolves into β-sheet after prolonged incubation times
Solubility, in words ([3]; lyophilized/monomerized peptide, needed HFIP or DMSO before dilution in 20 mM acetate buffer pH 6.5): poor solubility

L16G: full-length IAPP with Gly at position Leu16 (KCNTATCATQRLANFGVHSSNNFGAILSSTNVGSNTY; disulfide 2-7; ends not checked; UniProt P10997 34-70, looked up, variant L16G)
Assemblies observed by TEM after 48 h incubation [1]: Oligomer-like structures
Overall effect of the substitution on amyloid formation, in words [1]: delayed IAPP amyloid formation
Cytotoxicity compared with unmodified IAPP, in words (INS-1E cells): significantly reduced IAPP cytotoxicity
TFE-induced helical folding compared with unmodified IAPP, in words [2]: destabilizes the propensity of IAPP to adopt an α-helix

rIAPP: rodent IAPP, includes three β-breaker prolines within the 20-29 region
Amyloidogenicity of rodent IAPP ([4]; ref Moriarty and Raleigh, 1999, Tomasello et al., 2014): non-amyloidogenic

ANFLV [pentapeptide corresponding to the segment 13-17 of IAPP, from a recent study]
Fibril formation of the 13-17 pentapeptide ([4]; several days of incubation, ref Rozniakowski et al., 2020): did not form fibrils
